Non-standard residues stand in square brackets, D forms with d. 2Nal = N[C@@H](Cc1ccc2ccccc2c1)C(=O)O
How the values were obtained:
[1] = molecular target: T1, Sushi domains (SD1/2) protein of the GABAB1a (GB1a) subunit, recombinant; assay: FP competition
T1 construct: domain: Sushi domains (SD1/2); also called SDs; sushi domain 1/2 (SD1/2) protein

[2] = molecular target: T2, native full-length GB1a subunit from mouse brain membrane fraction (mouse, UniProt Q9WV18 20-960); assay: pull-down from mouse brain lysate, immunoblot
T2 construct: Detected by immunoblot after pull-down from brain lysate; also called native GB1a; native SD
T2 sequence (Q9WV18 20-960): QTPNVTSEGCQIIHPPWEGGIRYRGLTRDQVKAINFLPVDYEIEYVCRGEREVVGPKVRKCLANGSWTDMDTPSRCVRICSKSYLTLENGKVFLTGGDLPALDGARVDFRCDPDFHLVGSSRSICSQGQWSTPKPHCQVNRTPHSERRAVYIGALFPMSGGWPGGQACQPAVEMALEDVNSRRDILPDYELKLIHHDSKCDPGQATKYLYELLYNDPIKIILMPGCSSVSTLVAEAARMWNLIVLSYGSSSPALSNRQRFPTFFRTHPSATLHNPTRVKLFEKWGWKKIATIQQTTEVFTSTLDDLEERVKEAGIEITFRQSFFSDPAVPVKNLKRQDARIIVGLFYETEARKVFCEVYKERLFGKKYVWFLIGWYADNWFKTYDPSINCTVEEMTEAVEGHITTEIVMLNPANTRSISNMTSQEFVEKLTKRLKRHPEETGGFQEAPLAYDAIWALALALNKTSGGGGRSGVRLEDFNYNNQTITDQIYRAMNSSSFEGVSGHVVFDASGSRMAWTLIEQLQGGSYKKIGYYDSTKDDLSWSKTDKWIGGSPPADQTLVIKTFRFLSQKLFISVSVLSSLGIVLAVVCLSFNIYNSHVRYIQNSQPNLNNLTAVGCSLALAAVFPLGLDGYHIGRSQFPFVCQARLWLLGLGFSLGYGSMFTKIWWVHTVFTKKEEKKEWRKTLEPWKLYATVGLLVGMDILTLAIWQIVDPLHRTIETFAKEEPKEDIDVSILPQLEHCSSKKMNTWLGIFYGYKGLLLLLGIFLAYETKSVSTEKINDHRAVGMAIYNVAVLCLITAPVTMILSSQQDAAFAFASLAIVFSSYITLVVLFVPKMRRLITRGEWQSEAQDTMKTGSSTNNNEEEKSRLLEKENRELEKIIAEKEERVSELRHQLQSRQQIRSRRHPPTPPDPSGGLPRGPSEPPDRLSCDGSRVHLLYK

T1 sequence (Q9Z0U4 29-158): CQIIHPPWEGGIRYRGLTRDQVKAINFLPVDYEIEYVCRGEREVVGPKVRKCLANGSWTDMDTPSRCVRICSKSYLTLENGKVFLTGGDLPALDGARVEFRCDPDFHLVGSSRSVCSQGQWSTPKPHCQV

B1: Scr-20, scrambled version of peptide 20 ((2Nala)EDSDDYDDIDDDW) (peptide)
peptide: Ac-[2Nal]EDSDDYDDIDDDW-NH2
SMILES: CC[C@H](C)[C@H](NC(=O)[C@H](CC(=O)O)NC(=O)[C@H](CC(=O)O)NC(=O)[C@H](Cc1ccc(O)cc1)NC(=O)[C@H](CC(=O)O)NC(=O)[C@H](CC(=O)O)NC(=O)[C@H](CO)NC(=O)[C@H](CC(=O)O)NC(=O)[C@H](CCC(=O)O)NC(=O)[C@H](Cc1ccc2ccccc2c1)NC(C)=O)C(=O)N[C@@H](CC(=O)O)C(=O)N[C@@H](CC(=O)O)C(=O)N[C@@H](CC(=O)O)C(=O)N[C@@H](Cc1c[nH]c2ccccc12)C(N)=O
Q: Which Ki [1] does the source give for B1 here?
A: The Ki was 31 µM.

Q: Does B1 bind [2]?
A: Result: no binding
